In patent publication US20040092714A1:

Target: OSCAR specific ligand expressed on the surface of primary murine osteoblast cells (murine)
Test: cell-based or functional assay

dentine resorption pits per slice (pits per slice): 7
inhibition of dentine resorption (fold): > 10 fold
Substance: soluble murine OSCAR-Ig fusion polypeptide (extracellular domain of murine OSCAR fused to the Fc region of human IgG1) (Fc fusion)
